Consider one molecule from patent US20240101635A1 (AKSTON BIOSCIENCES, published 2024).

Read-outs that look alike come from different tables or passages of the source.

Test [1] concerns the target T1, human insulin receptor (human, UniProt P06213 28-1382).
T1 construct: whole, on cells; Endogenous receptor on IM-9 cells; also called IR
Nature of the test: competition with biotinylated RHI on IM-9 cells, flow cytometry, 4 C. The method, then: (§1) 40 μL of an IM-9 cell suspension (8×10⁶ cells/mL) was then added to each well by multichannel pipette, mixed again gently and incubated on ice for 30 min to allow competitive binding on the insulin receptor on IM-9 cells. Cells were then washed twice with 275 μL of ice-cold FACS wash buffer (HBSS/2 mM EDTA/0.1% Na-azide+0.5% horse serum) by centrifuging the V-bottom plate at 3000 rpm for 3 min and aspirating the supernatant. Cells were then resuspended in 40 μL of FACS staining medium containing 1:100 diluted Streptavidin-PE (Life Technologies) for 20 min on ice. Cells were then washed once with 275 μL of ice-cold FACS buffer and finally fixed with 3% paraformaldehyde for 10 min at room temp. Cells were then washed once with 275 μL of ice-cold FACS buffer and resuspended in 250 μl of FACS buffer for analysis.
The V-bottom plates containing cells were then analyzed on a Guava 8-HT flow cytometer (Millipore). Biotinylated-RHI binding to insulin receptor was quantitated by the median fluorescence intensity (MFI) of the cells on the FACS FL-2 channel for each concentration of the test compound. Control wells were labeled only with biotinylated-RHI and were used to calculate the percent (%) inhibition resulting from each test compound concentration. The % inhibition by test compounds of biotinylated-RHI binding on IM-9 cells was plotted against log concentrations of the test compound, and the resulting IC50 values were calculated using GraphPad Prism (GraphPad Software, La Jolla, CA) for the test compounds. Lower IC50 values of the test compound therefore indicate greater levels of biotinylated-RHI inhibition at lower concentrations indicating stronger binding of the insulin-Fc fusion protein to the insulin receptor. A control compound, such as unlabeled recombinant human insulin (RHI) was also used as an internal standard to generate an RHI IC50 against which a given compound IC50 could be ratioed (IC50(compound)/IC50(RHI)). Lower IC50 ratios have more similar binding to RHI (stronger binding to insulin receptor), while higher IC50 ratios have weaker binding to the insulin receptor relative to RHI.
For orientation: A flow cytometer gives signals particle by particle.

Test [2] has as its target T1, human insulin receptor. The test is described as above. As for the experimental part: Cultures of IM-9 cells were centrifuged at 250×g (˜1000 rpm) for 10 min to pellet the cells. Cells were washed once with HBSS or PBS buffer, resuspended in cold FACS staining medium (HBSS/2 mM EDTA/0.1% Na-azide+4% horse serum) to a concentration of 8×10⁶ cells/mL and kept on ice or 4° C. until test solutions were made. The insulin-Fc protein was diluted in FACS buffer in 1:3 serial dilutions as 2× concentrations in 1.2 mL tubes (approx. 60 μL volume of each dilution), and the solutions were kept cold on ice until ready for pipetting.
40 μL of an IM-9 cell suspension (8×10⁶ cells/mL) was then added to each well by multichannel pipette, mixed again gently and incubated on ice for 30 min to allow competitive binding on the insulin receptor on IM-9 cells. […]
The V-bottom plates containing cells were then analyzed on a Guava 8-HT flow cytometer (Millipore). Biotinylated-RHI binding to insulin receptor was quantitated by the median fluorescence intensity (MFI) of the cells on the FACS FL-2 channel for each concentration of the test compound. […] The % inhibition by test compounds of biotinylated-RHI binding on IM-9 cells was plotted against log concentrations of the test compound, and the resulting IC50 values were calculated using GraphPad Prism (GraphPad Software, La Jolla, CA) for the test compounds.
This is another data set of the same source.

Test [3] addresses biotinylated canine FcRn (canine, UniProt A0A8I3PFR8 25-347, biotinylated (site not stated)). The test can be described thus: ELISA pH 5.5, fusion protein coated, biotinylated canine FcRn titrated. As for the experimental part: Insulin-Fc fusion proteins comprising Fc fragments of canine or feline origin were diluted to 10 μg/ml in sodium bicarbonate pH 9.6 buffer and coated in duplicate on Maxisorb ELISA plate strips for 1-2 hours at RT. The strips were then washed 4 times with PBST (PBS/0.1% Tween-20) buffer and blocked with Superblock blocking reagent (ThermoFisher). Strips for FcRn binding were then washed again twice with pH 5.5 MES/NaCl/Tween (50 mM MES/l50 mM NaCl/0.1% Tween-20) buffer before addition of the FcRn reagent (biotinylated canine FcRn; Immunitrack). […] Serial dilutions (1:3× dilutions) of biotinylated FcRn reagent were prepared in pH 5.5 MES/NaCl/Tween/10% Superblock buffer at concentrations from 1000 ng/ml to 0.45 ng/ml and loaded at 100 μL/well using a multichannel pipettor onto the strips coated with the insulin-Fc fusion protein compounds. The assay plate was then incubated for 1 hour at room temperature. FcRn binding strips were washed 4 times with pH 5.5 MES/NaCl/Tween buffer and then loaded with 100 μl/well […] diluted 1:10000 in pH 5.5 MES/NaCl/10% Superblock buffer. After incubating for 45 minutes, strips were washed again 4 times with pH 5.5 MES/NaCl/Tween buffer. TMB was finally added to reveal the bound biotinylated-canine FcRn reagent, and the color development was stopped with the ELISA stop reagent. The plate was read in an ELISA plate reader at a wavelength of 450 nm. The OD values (proportional to the binding of canine-FcRn to the insulin-Fc fusion protein test compounds) were plotted against log concentrations of FcRn added to each well to generate binding curves using GraphPad Prism software. EC50 values for each binding curve were calculated to compare between different compounds.
For orientation: An ELISA detects its analyte on a solid surface through an enzyme-linked reagent.

The target in test [4] is T2, biotinylated recombinant human Fc(gamma) receptor I (human, UniProt P12314 16-288, biotinylated (site not stated)).
T2 construct: Bought reagent, used as surrogate for canine/feline Fc(gamma)RI; also called rhFc(gamma) receptor I; Fc(gamma)RI
The test can be described thus: ELISA, fusion protein coated, biotinylated rhFc(gamma)RI at 3000 ng/mL, pH 7.4. The method, then: The binding of insulin-Fc fusion proteins to the Fc(gamma) receptor I at pH 7.4 was conducted using an ELISA assay as follows. Since neither canine nor feline Fc(gamma) receptor I was not commercially available, human Fc(gamma) receptor I (i.e., rhFc(gamma) receptor I) was used as a surrogate mammalian receptor. Insulin-Fc compounds were diluted to 10 μg/mL in sodium bicarbonate buffer at pH 9.6 and coated on Maxisorp (Nunc) microtiter plates overnight at 4° C., after which the microplate strips were washed 5 times with PBST (PBS/0.05% Tween-20) buffer and blocked with Superblock blocking reagent (ThermoFisher). Serial dilutions of biotinylated rhFc(gamma) receptor I (recombinant human Fc(gamma)R-I; R&D Systems) were prepared in PBST/10% Superblock buffer from 6000 ng/mL to 8.2 ng/mL and loaded at 100 μL/well onto the microplate strips coated with insulin-Fc fusion protein. The microtiter plate was incubated for 1 hour at room temperature after which the microplate strips were washed 5 times with PBST and then loaded with 100 μL/well of streptavidin-HRP diluted 1:10000 in PBST/10% Superblock buffer. After incubating for 45 min, the microplate strips were washed again 5 times with PBST. TMB was added to reveal the bound Fc(gamma) receptor I proteins and stopped with ELISA stop reagent (Boston Bioproducts). The plate was read in an ELISA plate reader at 450 nm, and the OD values (proportional to the binding of rhFc(gamma) receptor I to insulin-Fc protein) were plotted against log concentrations of rhFc(gamma) receptor I added to each well to generate binding curves using GraphPad Prism software.
Finally, select compounds were tested for their likelihood to interact with the immune system by measuring their Fc(gamma) receptor binding activity according to the procedure of Example 8. Table 19 compares the Fc(gamma) receptor I binding of these insulin-Fc fusion proteins with the Fc(gamma) receptor binding of the insulin-Fc fusion protein of SEQ ID NO: 52.

Test [5] concerns the target T1, human insulin receptor. Nature of the test: competition with biotinylated RHI on IM-9 cells, flow cytometry, 4 C. As for the experimental part: as §1
The V-bottom plates containing cells were then analyzed on a Guava 8-HT flow cytometer (Millipore). Biotinylated-RHI binding to insulin receptor was quantitated by the median fluorescence intensity (MFI) of the cells on the FACS FL-2 channel for each concentration of the test compound. […] The % inhibition by test compounds of biotinylated-RHI binding on IM-9 cells was plotted against log concentrations of the test compound, and the resulting IC50 values were calculated using GraphPad Prism (GraphPad Software, La Jolla, CA) for the test compounds. […]
The source holds these as a separate data set.

T2 sequence (P12314 16-288 limits assumed): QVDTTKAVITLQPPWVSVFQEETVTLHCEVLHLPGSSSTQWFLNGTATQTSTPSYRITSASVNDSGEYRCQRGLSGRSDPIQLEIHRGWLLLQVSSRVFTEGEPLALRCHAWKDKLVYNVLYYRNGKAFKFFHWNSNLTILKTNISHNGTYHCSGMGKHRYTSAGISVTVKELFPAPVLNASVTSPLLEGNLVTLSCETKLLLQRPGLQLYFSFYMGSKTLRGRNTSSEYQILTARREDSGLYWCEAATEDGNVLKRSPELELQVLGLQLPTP
T1 sequence (P06213 28-1382): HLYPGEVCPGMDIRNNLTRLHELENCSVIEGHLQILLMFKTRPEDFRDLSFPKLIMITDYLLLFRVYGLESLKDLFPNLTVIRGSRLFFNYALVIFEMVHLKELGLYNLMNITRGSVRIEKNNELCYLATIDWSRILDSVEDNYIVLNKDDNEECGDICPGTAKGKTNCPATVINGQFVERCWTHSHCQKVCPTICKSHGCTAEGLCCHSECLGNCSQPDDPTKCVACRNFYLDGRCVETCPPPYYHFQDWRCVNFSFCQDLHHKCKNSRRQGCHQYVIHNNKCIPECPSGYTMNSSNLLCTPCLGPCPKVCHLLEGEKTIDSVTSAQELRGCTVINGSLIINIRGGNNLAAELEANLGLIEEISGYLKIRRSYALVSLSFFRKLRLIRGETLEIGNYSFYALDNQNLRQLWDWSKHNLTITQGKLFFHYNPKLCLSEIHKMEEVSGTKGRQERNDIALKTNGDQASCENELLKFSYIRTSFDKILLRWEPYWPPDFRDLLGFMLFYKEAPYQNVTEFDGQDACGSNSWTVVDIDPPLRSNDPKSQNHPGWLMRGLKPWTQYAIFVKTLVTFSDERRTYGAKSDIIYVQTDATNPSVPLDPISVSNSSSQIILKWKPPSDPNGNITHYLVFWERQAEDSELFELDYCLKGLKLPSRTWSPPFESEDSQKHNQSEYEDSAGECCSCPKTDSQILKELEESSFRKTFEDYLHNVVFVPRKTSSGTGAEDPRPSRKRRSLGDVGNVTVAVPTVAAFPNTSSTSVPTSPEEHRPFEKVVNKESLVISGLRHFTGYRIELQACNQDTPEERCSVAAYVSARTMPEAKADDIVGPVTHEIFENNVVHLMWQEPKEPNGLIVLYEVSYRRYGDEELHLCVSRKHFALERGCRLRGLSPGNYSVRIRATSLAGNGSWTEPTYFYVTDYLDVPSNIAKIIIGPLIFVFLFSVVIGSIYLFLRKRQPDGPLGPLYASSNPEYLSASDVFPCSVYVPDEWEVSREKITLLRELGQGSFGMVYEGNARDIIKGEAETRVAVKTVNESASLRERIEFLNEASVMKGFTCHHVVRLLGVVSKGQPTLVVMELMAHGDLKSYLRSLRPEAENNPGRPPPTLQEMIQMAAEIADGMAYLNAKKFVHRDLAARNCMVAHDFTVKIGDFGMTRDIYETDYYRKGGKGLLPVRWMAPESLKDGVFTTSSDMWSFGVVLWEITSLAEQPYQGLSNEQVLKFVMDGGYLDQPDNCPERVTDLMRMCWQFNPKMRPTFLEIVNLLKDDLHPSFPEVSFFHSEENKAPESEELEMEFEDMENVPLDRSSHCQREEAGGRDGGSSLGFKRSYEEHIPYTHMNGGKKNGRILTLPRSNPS
Chain of biotinylated canine FcRn (A0A8I3PFR8 entry or part of it): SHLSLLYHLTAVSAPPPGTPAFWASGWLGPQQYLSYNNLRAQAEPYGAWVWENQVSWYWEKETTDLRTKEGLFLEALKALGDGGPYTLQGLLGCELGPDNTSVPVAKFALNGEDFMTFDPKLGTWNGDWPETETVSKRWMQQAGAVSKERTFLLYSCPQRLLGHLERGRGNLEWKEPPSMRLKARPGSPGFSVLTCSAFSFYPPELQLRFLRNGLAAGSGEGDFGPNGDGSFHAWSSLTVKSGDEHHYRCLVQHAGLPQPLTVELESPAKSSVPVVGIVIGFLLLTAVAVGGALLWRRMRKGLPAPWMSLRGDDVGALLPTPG

B1: insulin-Fc fusion protein of SEQ ID NO: 32 (Fc fusion)
chain: FVNQHLCGSHLVEALELVCGERGFHYGGGGGGSGGGGGIVEQCCTSTCSLDQLENYCGGGGGQGGGGQGGGGQGGGGGDCPKCPAPEMLGGPSVFIFPPKPKDTLLIARTPEVTCVVVDLDPEDPEVQISWFVDGKQMQTAKTQPREEQFNGTYRVVSVLPIGHQDWLKGKQFTCKVNNKALPSPIERTISKARGQAHQPSVYVLPPSREELSKNTVSLTCLIKDFFPPDIDVEWQSNGQQEPESKYRTTPPQLDEDGSYFLYSKLSVDKSRWQRGDTFICAVMHEALHNHYTQESLSHSPG
notes: homodimer; also called 218d
One may read the IC50 as the concentration needed to halve the response being measured. In general, EC50 refers to the concentration at which the effect is half-maximal. A higher EC50 goes with lower potency in that assay. Consider B1, for which the concentration for half-maximal inhibition (IC50) in test [1] was found to be 2340 nM. In addition, the IC50 in test [2] is 2340 nM. Besides, in test [3], the EC50 amounted to 0.599 µg/mL. In test [4], the “OD450 nm Minus Assay Background” value worked out at 0.311 OD450, the “OD450 nm at a Fc(gamma)RI concentration of 3000 (ng/mL)” value was 0.368 OD450 and the “Ratio to SEQ ID NO: 52” value was found to be 0.84 ratio. The same molecule returned a half-inhibitory concentration (IC50) in test [5] of 2340 nM.
